We go through 1 molecule from publication PMC4537179.

Some targets named below: c-Myc bHLH-ZIP (Homo sapiens (human), UniProt P01106-1 353-437); Max(S) (UniProt P61244-2 1-151); Max(L) (UniProt P61244 1-160).
Common to all, as to assay: SPR

Chain of c-Myc bHLH-ZIP (P01106 368-452): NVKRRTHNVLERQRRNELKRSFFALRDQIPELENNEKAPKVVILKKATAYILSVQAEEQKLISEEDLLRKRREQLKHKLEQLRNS

B1: biotinylated E-box oligonucleotide (dsDNA)
DNA 1: TGAAGCAGACCACGTGGTCGTCTTCA
DNA 2: TGAAGACGACCACGTGGTCTGCTTCA
As to B1, the binding result is on record as “no binding” with c-Myc bHLH-ZIP, “no binding” in the data set with Max(S) and “binds” with Max(L).
